Measurements from the supplement of paper PMC10065799, “High-throughput profiling of sequence recognition by tyrosine kinases and SH2 domains using bacterial peptide display” (eLife, 2023).

Columns and labels:
[1] = system: AncSZ; assay: phosphorylation enrichment, bacterial display (enrichment ratio); higher = better substrate or ligand; peptides without Tyr show the background
[2] = molecular target: EPHB1 (UniProt P54762); assay: as above
[3] = molecular target: EPHB2 (UniProt P29323); assay: as above
[4] = molecular target: FGFR1 (UniProt P11362); assay: as above
[5] = molecular target: FGFR3 (UniProt P22607); assay: as above
[6] = system: Fer (mouse); assay: as above
[7] = molecular target: Fes (UniProt P07332); assay: as above
[8] = molecular target: Fyn (UniProt P06241); assay: as above
[9] = molecular target: Hck (UniProt P08631); assay: as above
[10] = molecular target: Jak2 (UniProt O60674); assay: as above
[11] = molecular target: MERTK (UniProt Q12866); assay: as above
[12] = system: c-Abl (mouse); assay: as above
[13] = system: c-Src; assay: as above
[14] = molecular target: Grb2 SH2 (UniProt P62993); assay: SH2 binding enrichment of the phosphorylated peptide, bacterial display (enrichment ratio); higher = better substrate or ligand; peptides without Tyr show the background
[15] = molecular target: SHP2-C SH2; assay: as above
[16] = molecular target: c-Src SH2; assay: as above
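Throughout, for SH2 binding enrichment of the phosphorylated peptide, bacterial display: peptide library displayed on the E. coli surface as eCPX fusions, selected cells deep-sequenced, score is each peptide's frequency after selection divided by its frequency in the input.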
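Throughout, for phosphorylation enrichment, bacterial display: 11-residue human phosphosite peptides and single-mutation variants displayed on the E. coli surface, counted by deep sequencing, each peptide's frequency after selection divided by its frequency in the unselected input library; frequency after pTyr selection over input frequency; kinase dosed for 20-30% of maximal phosphorylation in three min.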

FGFR1, sequence (P11362 whole entry, looked up): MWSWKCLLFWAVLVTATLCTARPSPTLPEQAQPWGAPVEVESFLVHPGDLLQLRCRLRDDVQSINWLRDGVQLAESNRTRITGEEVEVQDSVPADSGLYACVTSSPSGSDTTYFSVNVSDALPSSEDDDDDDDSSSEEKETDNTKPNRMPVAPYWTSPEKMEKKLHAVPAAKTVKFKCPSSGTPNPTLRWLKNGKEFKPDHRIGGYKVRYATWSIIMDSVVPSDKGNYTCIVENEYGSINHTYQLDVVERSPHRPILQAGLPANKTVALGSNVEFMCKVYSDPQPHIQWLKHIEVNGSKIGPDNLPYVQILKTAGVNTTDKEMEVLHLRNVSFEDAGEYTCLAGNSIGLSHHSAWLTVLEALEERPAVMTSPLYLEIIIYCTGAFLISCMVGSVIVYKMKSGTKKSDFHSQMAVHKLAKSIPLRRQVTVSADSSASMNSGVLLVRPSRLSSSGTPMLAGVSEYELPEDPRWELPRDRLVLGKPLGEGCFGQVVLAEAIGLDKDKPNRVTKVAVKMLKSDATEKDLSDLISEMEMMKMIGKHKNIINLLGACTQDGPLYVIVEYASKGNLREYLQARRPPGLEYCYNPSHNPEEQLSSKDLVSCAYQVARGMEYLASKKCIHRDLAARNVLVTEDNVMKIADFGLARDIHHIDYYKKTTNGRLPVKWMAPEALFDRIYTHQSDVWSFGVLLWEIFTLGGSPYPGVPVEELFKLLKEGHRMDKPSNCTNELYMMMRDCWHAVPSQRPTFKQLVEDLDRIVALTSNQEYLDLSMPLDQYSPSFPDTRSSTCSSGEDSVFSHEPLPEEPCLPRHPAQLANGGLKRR
Hck, sequence (P08631 whole entry, looked up): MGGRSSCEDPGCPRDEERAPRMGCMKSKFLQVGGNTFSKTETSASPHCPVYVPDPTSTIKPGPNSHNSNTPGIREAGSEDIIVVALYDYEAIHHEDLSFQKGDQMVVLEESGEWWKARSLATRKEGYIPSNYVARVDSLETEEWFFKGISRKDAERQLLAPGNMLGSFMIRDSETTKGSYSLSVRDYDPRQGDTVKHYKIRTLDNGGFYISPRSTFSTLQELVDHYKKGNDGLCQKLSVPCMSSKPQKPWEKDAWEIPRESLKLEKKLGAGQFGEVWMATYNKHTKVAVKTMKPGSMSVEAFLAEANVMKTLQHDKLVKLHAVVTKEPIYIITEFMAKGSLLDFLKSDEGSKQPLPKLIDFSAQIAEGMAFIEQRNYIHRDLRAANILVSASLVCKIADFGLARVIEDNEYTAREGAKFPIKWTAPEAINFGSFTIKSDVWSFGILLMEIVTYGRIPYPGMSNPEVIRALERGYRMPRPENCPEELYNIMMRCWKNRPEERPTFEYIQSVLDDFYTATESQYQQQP
Fes, sequence (P07332 whole entry, looked up): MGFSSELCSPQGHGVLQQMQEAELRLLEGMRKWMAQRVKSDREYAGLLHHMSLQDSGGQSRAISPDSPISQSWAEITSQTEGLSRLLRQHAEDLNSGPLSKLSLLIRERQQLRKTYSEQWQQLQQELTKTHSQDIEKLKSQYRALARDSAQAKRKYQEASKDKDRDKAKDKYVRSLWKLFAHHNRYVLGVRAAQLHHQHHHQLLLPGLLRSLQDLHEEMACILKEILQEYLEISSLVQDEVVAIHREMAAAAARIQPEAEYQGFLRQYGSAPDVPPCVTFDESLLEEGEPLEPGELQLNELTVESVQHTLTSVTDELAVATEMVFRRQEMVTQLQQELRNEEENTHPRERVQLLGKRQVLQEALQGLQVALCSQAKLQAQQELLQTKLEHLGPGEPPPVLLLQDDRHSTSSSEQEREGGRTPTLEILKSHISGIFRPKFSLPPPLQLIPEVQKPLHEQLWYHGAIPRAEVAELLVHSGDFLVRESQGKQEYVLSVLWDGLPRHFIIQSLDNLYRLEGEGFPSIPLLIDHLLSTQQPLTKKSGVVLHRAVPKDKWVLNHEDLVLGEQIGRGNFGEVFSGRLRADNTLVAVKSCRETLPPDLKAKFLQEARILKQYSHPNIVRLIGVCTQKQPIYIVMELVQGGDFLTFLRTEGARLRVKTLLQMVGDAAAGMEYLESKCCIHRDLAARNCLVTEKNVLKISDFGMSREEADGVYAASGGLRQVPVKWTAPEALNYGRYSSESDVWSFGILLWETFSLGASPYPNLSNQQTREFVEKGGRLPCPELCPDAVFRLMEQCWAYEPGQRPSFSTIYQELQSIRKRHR
EPHB2, sequence (P29323 whole entry, looked up): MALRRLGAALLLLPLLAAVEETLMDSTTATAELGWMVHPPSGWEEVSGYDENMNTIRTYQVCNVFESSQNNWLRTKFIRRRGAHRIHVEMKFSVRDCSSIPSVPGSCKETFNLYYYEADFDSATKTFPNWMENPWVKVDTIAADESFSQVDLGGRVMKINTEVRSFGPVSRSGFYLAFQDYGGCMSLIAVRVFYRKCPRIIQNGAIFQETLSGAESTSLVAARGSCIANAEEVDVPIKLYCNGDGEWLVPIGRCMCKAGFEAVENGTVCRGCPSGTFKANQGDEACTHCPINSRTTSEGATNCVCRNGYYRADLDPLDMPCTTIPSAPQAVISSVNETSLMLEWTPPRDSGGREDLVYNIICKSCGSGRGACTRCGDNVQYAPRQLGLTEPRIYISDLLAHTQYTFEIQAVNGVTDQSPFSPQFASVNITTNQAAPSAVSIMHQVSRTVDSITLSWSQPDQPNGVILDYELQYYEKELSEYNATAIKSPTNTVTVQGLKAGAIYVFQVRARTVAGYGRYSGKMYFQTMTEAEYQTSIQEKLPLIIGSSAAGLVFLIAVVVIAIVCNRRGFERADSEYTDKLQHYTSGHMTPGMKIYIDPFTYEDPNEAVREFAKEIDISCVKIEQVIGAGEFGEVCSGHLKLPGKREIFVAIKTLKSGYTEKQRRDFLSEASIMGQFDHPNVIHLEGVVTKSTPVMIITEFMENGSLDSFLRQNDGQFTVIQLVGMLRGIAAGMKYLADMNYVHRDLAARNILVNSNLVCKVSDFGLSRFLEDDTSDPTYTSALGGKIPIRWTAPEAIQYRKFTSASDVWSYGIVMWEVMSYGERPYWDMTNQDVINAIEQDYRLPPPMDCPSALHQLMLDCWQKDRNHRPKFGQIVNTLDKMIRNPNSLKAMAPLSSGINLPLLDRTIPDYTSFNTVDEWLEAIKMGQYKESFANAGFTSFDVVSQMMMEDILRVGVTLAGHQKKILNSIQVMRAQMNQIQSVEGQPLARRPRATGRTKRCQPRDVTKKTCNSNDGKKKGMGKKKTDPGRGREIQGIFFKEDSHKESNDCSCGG
FGFR3, sequence (P22607 whole entry, looked up): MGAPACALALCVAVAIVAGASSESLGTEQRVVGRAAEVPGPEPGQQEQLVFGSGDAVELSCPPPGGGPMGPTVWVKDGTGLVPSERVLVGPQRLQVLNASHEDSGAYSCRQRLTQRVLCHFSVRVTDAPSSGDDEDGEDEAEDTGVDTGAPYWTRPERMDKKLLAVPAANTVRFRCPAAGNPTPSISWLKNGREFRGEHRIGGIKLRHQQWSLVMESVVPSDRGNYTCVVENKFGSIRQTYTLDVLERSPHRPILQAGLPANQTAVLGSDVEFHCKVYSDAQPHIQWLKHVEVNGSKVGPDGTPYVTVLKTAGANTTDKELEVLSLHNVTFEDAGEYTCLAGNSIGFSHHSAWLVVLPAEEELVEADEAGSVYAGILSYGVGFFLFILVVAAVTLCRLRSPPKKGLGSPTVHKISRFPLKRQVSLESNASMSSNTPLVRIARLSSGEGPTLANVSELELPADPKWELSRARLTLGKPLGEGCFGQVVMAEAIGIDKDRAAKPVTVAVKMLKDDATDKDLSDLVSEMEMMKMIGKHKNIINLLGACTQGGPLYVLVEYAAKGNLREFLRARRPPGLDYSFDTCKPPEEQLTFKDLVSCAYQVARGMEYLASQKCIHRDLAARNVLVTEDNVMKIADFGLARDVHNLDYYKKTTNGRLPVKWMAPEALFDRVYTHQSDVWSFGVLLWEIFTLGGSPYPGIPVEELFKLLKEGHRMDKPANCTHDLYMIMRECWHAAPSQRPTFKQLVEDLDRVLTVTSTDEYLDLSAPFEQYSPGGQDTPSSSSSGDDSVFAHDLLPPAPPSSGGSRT
Grb2 SH2, sequence (P62993 whole entry, looked up): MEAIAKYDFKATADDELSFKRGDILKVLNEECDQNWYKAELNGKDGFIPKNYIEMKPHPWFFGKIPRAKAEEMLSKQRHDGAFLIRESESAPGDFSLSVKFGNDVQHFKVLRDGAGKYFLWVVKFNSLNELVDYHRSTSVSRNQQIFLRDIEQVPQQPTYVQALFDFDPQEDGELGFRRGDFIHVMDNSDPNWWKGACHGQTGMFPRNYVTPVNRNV
Fyn, sequence (P06241 whole entry, looked up): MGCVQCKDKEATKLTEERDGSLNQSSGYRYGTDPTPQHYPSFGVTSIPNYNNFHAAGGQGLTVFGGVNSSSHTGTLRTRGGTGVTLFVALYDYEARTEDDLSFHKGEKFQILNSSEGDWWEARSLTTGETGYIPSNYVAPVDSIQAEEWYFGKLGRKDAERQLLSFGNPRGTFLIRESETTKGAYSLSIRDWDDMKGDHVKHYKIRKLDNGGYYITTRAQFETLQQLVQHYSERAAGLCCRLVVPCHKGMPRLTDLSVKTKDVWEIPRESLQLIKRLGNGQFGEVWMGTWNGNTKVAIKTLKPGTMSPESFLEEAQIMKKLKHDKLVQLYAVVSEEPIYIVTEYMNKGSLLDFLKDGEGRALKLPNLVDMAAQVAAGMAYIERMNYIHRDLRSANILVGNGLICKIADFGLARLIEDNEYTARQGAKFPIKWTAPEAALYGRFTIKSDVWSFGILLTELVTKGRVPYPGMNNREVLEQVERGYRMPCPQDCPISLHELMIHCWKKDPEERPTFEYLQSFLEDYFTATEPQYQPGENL

| Sequence | phosphorylation enrichment [1] | phosphorylation enrichment [2] | phosphorylation enrichment [3] | phosphorylation enrichment [4] | phosphorylation enrichment [5] | phosphorylation enrichment [6] | phosphorylation enrichment [7] | phosphorylation enrichment [8] | phosphorylation enrichment [9] | phosphorylation enrichment [10] | phosphorylation enrichment [11] | phosphorylation enrichment [12] | phosphorylation enrichment [13] | SH2 binding enrichment [14] | SH2 binding enrichment [15] | SH2 binding enrichment [16] |
| --- | --- | --- | --- | --- | --- | --- | --- | --- | --- | --- | --- | --- | --- | --- | --- | --- |
| NLNGKYYKPRA [ANGPTL3_Y417_N418Y] | 0.474 | 0.404 | 0.324 | 0.408 | 0.445 | 0.354 | 0.57 | 0.241 | 0.312 | 0.617 | 0.304 | 0.61 | 0.406 | 1.3 | 0.974 | 0.861 |
| NNDLCYWVPEL [IARS1_Y434] | 2.86 | 4.43 | 5.52 | 5.92 | 5.02 | 0.643 | 1.22 | 1.92 | 2.13 | 3.15 | 4.55 | 8.63 | 2.17 | 0.813 | 0.791 | 0.514 |
| NPEACYQRLKK [TK2_Y190_T188A] | 0.63 | 0.417 | 0.507 | 0.381 | 0.471 | 0.419 | 0.597 | 0.474 | 0.802 | 0.892 | 0.484 | 0.558 | 0.685 | 1.11 | 0.949 | 1.1 |
| NREGVYTVFAP [TGFBI_Y537] | 1.54 | 2.35 | 2.04 | 0.885 | 1.07 | 8.74 | 1.11 | 13.3 | 10 | 0.862 | 11.4 | 1.57 | 8.95 | 0.688 | 0.516 | 0.604 |
| NTGFFYDLFGG [PTPN11_Y63_D61Y_YF] | 1.24 | 0.693 | 0.659 | 0.509 | 0.786 | 0.77 | 1.31 | 2.42 | 1.52 | 1.19 | 3.4 | 0.869 | 2.85 | 1.51 | 1.66 | 0.98 |
| NTGYYYDLYGG [PTPN11_Y63_D61Y] | 1.73 | 11.3 | 10.6 | 13.9 | 11.3 | 3.4 | 1.25 | 5.76 | 6.15 | 4.73 | 8.78 | 0.971 | 4.67 | 1.33 | 1.56 | 5.74 |
| PAGSGYPAFLG [ATP6V1A_Y374_D371G_YF] | 1 | 0.634 | 1.17 | 0.737 | 0.794 | 0.512 | 1.13 | 0.478 | 0.626 | 0.687 | 0.469 | 0.869 | 0.735 | 0.828 | 0.778 | 0.538 |
| PANTVYSTVEI [SLAMF7_Y304] | 1.59 | 2.2 | 1.83 | 1.43 | 1.29 | 23.3 | 2.16 | 10.2 | 9.13 | 1.47 | 7.46 | 6.76 | 7.87 | 0.925 | 5.85 | 1.26 |
| PASLSYLSFEG [EXOSC3_Y143] | 0.942 | 0.745 | 0.789 | 0.591 | 0.742 | 0.501 | 0.954 | 0.819 | 0.602 | 1.18 | 0.661 | 0.619 | 1.1 | 0.762 | 1.11 | 0.696 |
| PASWTYVRWFD [PTDSS1_Y274] | 1.71 | 1.12 | 1.1 | 0.907 | 1.35 | 0.729 | 1.79 | 0.669 | 1.14 | 1.79 | 0.51 | 1.04 | 1.01 | 1.47 | 1.65 | 0.766 |
| PDGREYIYVDP [PDGFRA_Y572_H570R] | 3.36 | 3.98 | 2.74 | 8.67 | 5.18 | 0.983 | 1.35 | 1.07 | 1.28 | 1.88 | 1.42 | 1.93 | 1.77 | 0.605 | 0.781 | 0.385 |
| PEAALYGRFTF [FYN_Y440_I445F] | 1.21 | 1.14 | 1.2 | 1.29 | 0.971 | 2.75 | 1.6 | 10.1 | 8.89 | 1.41 | 5.92 | 4.39 | 7.87 | 0.652 | 0.563 | 0.328 |
| PEIIAYQPFGK [PRKCG_Y529_YF] | 1.03 | 0.635 | 0.645 | 0.777 | 0.796 | 0.672 | 1.1 | 0.688 | 0.798 | 0.976 | 0.653 | 0.672 | 1.07 | 1.06 | 1.11 | 0.664 |
| PEQAAYQKVVA [HBB_Y131_V127E] | 0.591 | 0.613 | 0.811 | 0.519 | 0.524 | 0.681 | 1.07 | 0.462 | 0.561 | 1.08 | 0.483 | 1 | 0.472 | 0.782 | 0.497 | 0.669 |
| PFGQWYESHFA [RPS8_Y113_R110G_YF] | 1.3 | 5.8 | 4.94 | 1.01 | 1.01 | 17.7 | 1.43 | 1.32 | 1.53 | 0.907 | 4.87 | 0.764 | 4.21 | 1.15 | 1.12 | 0.919 |
| PFTRNYFVWAV [CYBA_Y87_R90W_YF] | 4.23 | 3.63 | 3.07 | 13.5 | 10.9 | 1.97 | 4.28 | 1.56 | 1.92 | 7.13 | 9.74 | 4.62 | 1.27 | 0.939 | 0.771 | 0.534 |
| PGIRMYRVQFN [LRFN1_Y454_Q455R_YF] | 1.35 | 0.468 | 0.642 | 0.622 | 0.618 | 0.611 | 1.14 | 0.656 | 0.485 | 0.844 | 0.652 | 0.512 | 0.607 | 0.796 | 0.606 | 0.469 |

| Sequence | phosphorylation enrichment [1] | phosphorylation enrichment [2] | phosphorylation enrichment [3] | phosphorylation enrichment [4] | phosphorylation enrichment [5] | phosphorylation enrichment [6] | phosphorylation enrichment [7] | phosphorylation enrichment [8] | phosphorylation enrichment [9] | phosphorylation enrichment [10] | phosphorylation enrichment [11] | phosphorylation enrichment [12] | phosphorylation enrichment [13] | SH2 binding enrichment [14] | SH2 binding enrichment [15] | SH2 binding enrichment [16] |
| --- | --- | --- | --- | --- | --- | --- | --- | --- | --- | --- | --- | --- | --- | --- | --- | --- |
| PGVDIYVSPNM [PADI3_Y51_I52V] | 1.37 | 1.17 | 1.46 | 0.809 | 0.781 | 0.708 | 1.71 | 1.52 | 2.76 | 1.24 | 0.629 | 2.3 | 0.885 | 0.804 | 0.555 | 0.524 |
| PICEGYALPHA [ACTC1_Y171_Y168C] | 0.946 | 0.488 | 0.587 | 0.682 | 0.598 | 0.577 | 0.804 | 0.707 | 0.535 | 0.453 | 0.445 | 0.897 | 0.406 | 0.951 | 0.918 | 4.74 |
| PIGRKYKKVRF [F8_Y442_R437P] | 0.828 | 0.557 | 0.597 | 0.577 | 0.368 | 0.459 | 0.54 | 0.763 | 0.553 | 0.545 | 0.498 | 0.661 | 0.587 | 0.653 | 0.648 | 0.568 |
| PIPAAYNRYDQ [CDC73_Y290] | 0.71 | 0.433 | 0.571 | 0.541 | 0.621 | 0.593 | 0.751 | 0.736 | 0.507 | 0.416 | 0.263 | 0.572 | 0.342 | 0.75 | 0.559 | 0.5 |
| PLDGEYLTLQI [TP53_Y327_F328L] | 2.75 | 1.46 | 1.23 | 1.64 | 2.15 | 1.08 | 2.31 | 1.08 | 0.927 | 2.48 | 0.764 | 2.16 | 1.14 | 0.522 | 0.555 | 0.504 |
| PLRAFYLIARV [HLCS_Y635_D634Y_YF] | 3.67 | 1.02 | 1.46 | 1.07 | 1.84 | 1.26 | 4.68 | 0.92 | 0.866 | 5.18 | 1.33 | 3.67 | 2.27 | 0.996 | 0.738 | 0.6 |
| PMQMPYDSRWE [PDGFRA_Y582_L580M] | 1.52 | 0.835 | 0.801 | 0.865 | 1.1 | 0.671 | 1.47 | 0.374 | 0.794 | 2.03 | 0.728 | 1.96 | 1.49 | 0.615 | 0.721 | 0.601 |
| PPQFSYGLQTQ [SRA1_Y35] | 0.466 | 0.333 | 0.584 | 0.586 | 0.308 | 0.286 | 0.604 | 0.346 | 0.443 | 0.433 | 0.467 | 0.483 | 0.426 | 0.97 | 0.544 | 0.425 |
| PPVVNYEQDAR [FER_Y402_E404Q] | 1.33 | 1.01 | 0.534 | 0.69 | 1.29 | 0.679 | 1.18 | 0.636 | 0.628 | 1.49 | 0.541 | 0.767 | 0.646 | 0.879 | 0.826 | 0.728 |
| PQAVRYIYTID [DCX_Y103_G100A] | 1.12 | 0.74 | 0.722 | 0.723 | 0.74 | 0.67 | 1.42 | 7.37 | 3.66 | 0.983 | 1.72 | 1.01 | 6.46 | 0.882 | 17.1 | 0.644 |
| PQDVTYAQLHS [LILRB4_Y412] | 0.959 | 1.22 | 0.999 | 0.351 | 0.75 | 0.685 | 1.22 | 4.37 | 6.52 | 0.786 | 0.645 | 0.815 | 2.8 | 0.56 | 1.52 | 0.973 |
| PSDLLYIPDIQ [ITGA2B_Y845_L847P] | 2 | 1.35 | 1.1 | 1.21 | 1.37 | 0.494 | 1.77 | 0.917 | 0.921 | 2 | 0.953 | 1.89 | 0.808 | 0.847 | 0.288 | 0.539 |
| PSELFYSKISP [SMG1_Y2254_G2258S_YF] | 1.15 | 1.59 | 1.52 | 3.79 | 2.72 | 11.3 | 0.972 | 2.06 | 8.64 | 2.3 | 13.6 | 3.5 | 3.48 | 0.854 | 3.93 | 3.17 |
| PSGPTYRGAVP [ASAH1_Y43] | 0.772 | 0.757 | 0.509 | 0.58 | 0.503 | 0.417 | 0.698 | 0.602 | 0.583 | 0.611 | 0.58 | 0.489 | 0.878 | 0.876 | 0.74 | 0.519 |
| PSPMPYASCQM [FOXL2_Y215] | 1.28 | 0.631 | 0.65 | 0.671 | 0.625 | 1 | 1.07 | 0.519 | 0.661 | 0.98 | 0.608 | 0.666 | 0.865 | 0.688 | 0.848 | 1.24 |
| PSRKDYETFQS [CTNND2_Y1154_P1159S_YF] | 0.853 | 0.91 | 0.792 | 0.769 | 0.751 | 0.518 | 0.977 | 0.845 | 0.54 | 0.553 | 0.614 | 1.94 | 0.729 | 0.76 | 0.55 | 0.439 |
